Data published in paper PMC3206016, “Putting into Practice Domain-Linear Motif Interaction Predictions for Exploration of Protein Networks” (PLoS ONE, 2011).
Ends that are not written are not given here. * marks the point of attachment. Biotin = O=C1N[C@H]2[C@H](CS[C@H]2CCCCC(=O)*)N1

B1: GLUT7_05 (short peptide of Solute carrier family 2, facilitated glucose transporter member 7: GSGAG and the last five residues) (peptide)
peptide: Biotin-GSGAGKETSF
notes: also called GLUT7 short; source: synthetic peptide (JPT Peptide Technologies)
B2: ATP1A1_05 (short peptide of Sodium/potassium-transporting ATPase subunit alpha-1: GSGAG and the last five residues) (peptide)
peptide: Biotin-GSGAGKETYY
notes: also called ATP1A1 short; source: synthetic peptide (JPT Peptide Technologies)
B3: CYSLTR2_05 (short peptide of Cysteinyl leukotriene receptor 2: GSGAG and the last five residues) (peptide)
peptide: Biotin-GSGAGKETRV
notes: also called CYSLTR2 short; source: synthetic peptide (JPT Peptide Technologies)
B4: ARHGAP6_05 (short peptide of Rho GTPase-activating protein 6: GSGAG and the last five residues) (peptide)
peptide: Biotin-GSGAGPETLV
notes: also called ARHGAP6 short; source: synthetic peptide (JPT Peptide Technologies)
B5: MAGI1-3/6 (MBP fusion of the third of the six PDZ domains of MAGI1) (domain or fragment)
chain: SHGYPNDTVSLASSIATQPELITVHIVKGPMGFGFTIADSPGGGGQRVKQIVDSPRCRGLKEGDLIVEVNKKNVQALTHNQVVDMLIECPKGSEVTLLVQRGGLPVPKKSPKSQPLERKDSQNSSQHSVSSHRSLHTASP
notes: source: E. coli BL21 DE3, purified (amylose column, Superdex 75 gel filtration)
B6: ADAM17_10 (long peptide of Disintegrin and metalloproteinase domain-containing protein 17: the last ten residues) (peptide)
peptide: Biotin-NRVDSKETEC
notes: also called ADAM17 long; source: synthetic peptide (JPT Peptide Technologies)
B7: MARCH3_05 (short peptide of E3 ubiquitin-protein ligase MARCH3: GSGAG and the last five residues) (peptide)
peptide: Biotin-GSGAGKETVV
notes: also called MARCH3 short; source: synthetic peptide (JPT Peptide Technologies)
B8: DLL1_05 (short peptide of Delta-like protein 1: GSGAG and the last five residues) (peptide)
peptide: Biotin-GSGAGIATEV
notes: also called DLL1 short; source: synthetic peptide (JPT Peptide Technologies)
B9: MARCH3_10 (long peptide of E3 ubiquitin-protein ligase MARCH3: the last ten residues) (peptide)
peptide: Biotin-VKRNSKETVV
notes: also called MARCH3 long; source: synthetic peptide (JPT Peptide Technologies)
B10: GLUT7_10 (long peptide of Solute carrier family 2, facilitated glucose transporter member 7: the last ten residues) (peptide)
peptide: Biotin-TASPAKETSF
notes: also called GLUT7 long; source: synthetic peptide (JPT Peptide Technologies)
B11: TMEM215_10 (long peptide of Transmembrane protein 215: the last ten residues) (peptide)
peptide: Biotin-QGRWDHETIV
notes: also called TMEM215 long; source: synthetic peptide (JPT Peptide Technologies)
B12: FZD4_10 (long peptide of Frizzled-4: the last ten residues) (peptide)
peptide: Biotin-KPGKGSETVV
notes: also called FZD4 long; source: synthetic peptide (JPT Peptide Technologies)
B13: ATP1A1_10 (long peptide of Sodium/potassium-transporting ATPase subunit alpha-1: the last ten residues) (peptide)
peptide: Biotin-GGWVEKETYY
notes: also called ATP1A1 long; source: synthetic peptide (JPT Peptide Technologies)
B14: MAGI1-2/6 (MBP fusion of the second of the six PDZ domains of MAGI1) (domain or fragment)
chain: KPFFTRNPSELKGKFIHTKLRKSSRGFGFTVVGGDEPDEFLQIKSLVLDGPAALDGKMETGDVIVSVNDTCVLGHTHAQVVKIFQSIPIGASVDLELCRGYPLPFDPDDPNTSLVTSVAILDKEP
notes: as for B5
B15: GLAST_05 (short peptide of Excitatory amino acid transporter 1: GSGAG and the last five residues) (peptide)
peptide: Biotin-GSGAGSETKM
notes: also called GLAST short; source: synthetic peptide (JPT Peptide Technologies)
B16: NET1_05 (short peptide of Neuroepithelial cell-transforming gene 1 protein: GSGAG and the last five residues) (peptide)
peptide: Biotin-GSGAGKETLV
notes: also called NET1 short; source: synthetic peptide (JPT Peptide Technologies)
B17: TTC24_05 (short peptide of Tetratricopeptide repeat protein 24: GSGAG and the last five residues) (peptide)
peptide: Biotin-GSGAGICTIV
notes: also called TTC24 short; source: synthetic peptide (JPT Peptide Technologies)
B18: MAS_05 (short peptide of Proto-oncogene Mas: GSGAG and the last five residues) (peptide)
peptide: Biotin-GSGAGVETVV
notes: also called MAS short; source: synthetic peptide (JPT Peptide Technologies)
B19: ARHGAP6_10 (long peptide of Rho GTPase-activating protein 6: the last ten residues) (peptide)
peptide: Biotin-NPDALPETLV
notes: also called ARHGAP6 long; source: synthetic peptide (JPT Peptide Technologies)
B20: ABC1_10 (long peptide of ATP-binding cassette sub-family A member 1: the last ten residues) (peptide)
peptide: Biotin-QDEKVKESYV
notes: also called ABC1 long; source: synthetic peptide (JPT Peptide Technologies)
B21: VANG2_05 (short peptide of Vang-like protein 2: GSGAG and the last five residues) (peptide)
peptide: Biotin-GSGAGSETSV
notes: also called VANG2 short; source: synthetic peptide (JPT Peptide Technologies)
B22: PTEN_05 (short peptide of PTEN: GSGAG and the last five residues) (peptide)
peptide: Biotin-GSGAGQITKV
notes: also called PTEN short; source: synthetic peptide (JPT Peptide Technologies)
B23: MAS_10 (long peptide of Proto-oncogene Mas: the last ten residues) (peptide)
peptide: Biotin-CNTVTVETVV
notes: also called MAS long; source: synthetic peptide (JPT Peptide Technologies)
B24: VANG2_10 (long peptide of Vang-like protein 2: the last ten residues) (peptide)
peptide: Biotin-VMRLQSETSV
notes: also called VANG2 long; source: synthetic peptide (JPT Peptide Technologies)
B25: PTEN_10 (long peptide of PTEN: the last ten residues) (peptide)
peptide: Biotin-EDQHTQITKV
notes: also called PTEN long; source: synthetic peptide (JPT Peptide Technologies)
B26: SCRIB-3/4 (MBP fusion of the third of the four PDZ domains of SCRIB) (domain or fragment)
chain: EGPYPVEEIRLPRAGGPLGLSIVGGSDHSSHPFGVQEPGVFISKVLPRGLAARSGLRVGDRILAVNGQDVRDATHQEAVSALLRPCLELSLLVRRDP
notes: also called MBP-PDZ analyte SCRIB-3/4; source: E. coli BL21 DE3, purified (amylose column, Superdex 75 gel filtration)
B27: ABC1_05 (short peptide of ATP-binding cassette sub-family A member 1: GSGAG and the last five residues) (peptide)
peptide: Biotin-GSGAGKESYV
notes: also called ABC1 short; source: synthetic peptide (JPT Peptide Technologies)
B28: CYSLTR2_10 (long peptide of Cysteinyl leukotriene receptor 2: the last ten residues) (peptide)
peptide: Biotin-SVWLRKETRV
notes: also called CYSLTR2 long; source: synthetic peptide (JPT Peptide Technologies)
B29: FZD4_05 (short peptide of Frizzled-4: GSGAG and the last five residues) (peptide)
peptide: Biotin-GSGAGSETVV
notes: also called FZD4 short; source: synthetic peptide (JPT Peptide Technologies)
B30: NET1_10 (long peptide of Neuroepithelial cell-transforming gene 1 protein: the last ten residues) (peptide)
peptide: Biotin-SGGKRKETLV
notes: also called NET1 long; source: synthetic peptide (JPT Peptide Technologies)
B31: TMEM215_05 (short peptide of Transmembrane protein 215: GSGAG and the last five residues) (peptide)
peptide: Biotin-GSGAGHETIV
notes: also called TMEM215 short; source: synthetic peptide (JPT Peptide Technologies)
B32: TANC1_05 (short peptide of Tetratricopeptide repeat, ankyrin repeat and coiled-coil domain-containing protein 1: GSGAG and the last five residues) (peptide)
peptide: Biotin-GSGAGIESNV
notes: also called TANC1 short; source: synthetic peptide (JPT Peptide Technologies)
B33: SCRIB-4/4 (MBP fusion of the fourth of the four PDZ domains of SCRIB) (domain or fragment)
chain: GLRELCIQKAPGERLGISIRGGARGHAGNPRDPTDEGIFISKVSPTGAAGRDGRLRVGLRLLEVNQQSLLGLTHGEAVQLLRSVGDTLTVLVCDGFE
notes: also called MBP-PDZ analyte SCRIB-4/4; source: E. coli BL21 DE3, purified (amylose column, Superdex 75 gel filtration)
B34: DLL1_10 (long peptide of Delta-like protein 1: the last ten residues) (peptide)
peptide: Biotin-KDECVIATEV
notes: also called DLL1 long; source: synthetic peptide (JPT Peptide Technologies)
B35: SCRIB-34/4 (MBP fusion of the tandem of the third and fourth PDZ domains of SCRIB) (domain or fragment)
chain: EGPYPVEEIRLPRAGGPLGLSIVGGSDHSSHPFGVQEPGVFISKVLPRGLAARSGLRVGDRILAVNGQDVRDATHQEAVSALLRPCLELSLLVRRDPAPPGLRELCIQKAPGERLGISIRGGARGHAGNPRDPTDEGIFISKVSPTGAAGRDGRLRVGLRLLEVNQQSLLGLTHGEAVQLLRSVGDTLTVLVCDGFE
notes: also called MBP-PDZ analyte SCRIB-34/4; tandem PDZ construct; source: E. coli BL21 DE3, purified (amylose column, Superdex 75 gel filtration)

How the values were obtained:
Test in all cases: SPR
Conditions in all cases: both partners purified
[1] = target: B35
[2] = target: B26
[3] = target: B26; remark: listed apart in the source
[4] = target: B5
[5] = target: B35; remark: listed apart in the source
[6] = target: B14
[7] = target: B5; remark: listed apart in the source
[8] = target: B35; remark: listed apart in the source
[9] = target: B14; remark: listed apart in the source
[10] = target: B26; remark: listed apart in the source
[11] = target: T1, TAX1_05 (short peptide of the Trans-activating transcriptional regulatory protein of HTLV-1: GSGAG a (HTLV-1A, biotin at N-terminus))
T1 construct: source: synthetic peptide (JPT Peptide Technologies)

[12] = target: B26; remark: listed apart in the source
[13] = target: B35; remark: listed apart in the source
[14] = target: B14; remark: listed apart in the source
[15] = target: B5; remark: listed apart in the source
[16] = target: T2, 16E6_05 (short peptide of HPV16 early protein E6: GSGAG and the last five residues) (human papilloma virus 16, biotin at N-terminus)
T2 construct: also called 16E6 short; source: synthetic peptide (JPT Peptide Technologies)

[17] = target: B5; remark: listed apart in the source

With B1 the Kd [1] was 5 µM and the Kd [2] was 56 µM.

In the case of B2, the Kd [3] is reported as 1280 µM.

With B3 the Kd [4] was 21 µM, the Kd [5] was 10 µM and the Kd [6] was 30 µM. For the same binder, the Kd [3] was 103 µM.

Binder B4 has a Kd [7] of 58 µM, a Kd [8] of 31 µM and a Kd [9] of 2000 µM. For the same binder, the Kd [10] was 216 µM.

Work on B5 yielded a Kd [11] of 75 µM.

B6 gave a Kd [5] of 8 µM, a Kd [3] of 79 µM and a Kd [12] of 97 µM.

B7 was tested, and the Kd [13] was 7 µM, the Kd [14] was 225 µM and the Kd [12] was 46 µM.

B8 showed a Kd [7] of 246 µM, a Kd [9] of 32 µM and a Kd [10] of 200 µM.

In the case of B9, the Kd [15] is reported as 686 µM, the Kd [13] is reported as 16 µM and the Kd [14] is reported as 103 µM. For the same binder, the Kd [12] was 100 µM.

Binder B10 has a Kd [1] of 5 µM and a Kd [2] of 45 µM.

With B11 the Kd [15] was 67 µM, the Kd [13] was 9 µM and the Kd [12] was 128 µM.

With B12 the Kd [6] was 23 µM.

Binder B13 has a Kd [3] of 88 µM.

Work on B14 yielded a Kd [16] of 7 µM and a Kd [11] of 33 µM.

Work on B15 yielded a Kd [5] of 179 µM and a Kd [3] of 182 µM.

Binder B16 has a Kd [7] of 23 µM, a Kd [8] of 15 µM and a Kd [9] of 62 µM. For the same binder, the Kd [10] was 308 µM.

For B17, the Kd [4] was 34 µM, the Kd [5] was 25 µM and the Kd [6] was 65 µM. The Kd [3] was 239 µM.

B18 showed a Kd [15] of 90 µM, a Kd [13] of 16 µM and a Kd [14] of 2740 µM. For the same binder, the Kd [12] was 158 µM.

B19 gave a Kd [7] of 41 µM, a Kd [8] of 28 µM and a Kd [9] of 18 µM. The Kd [10] was 541 µM.

For B20, the Kd [7] was 20 µM, the Kd [8] was 8 µM and the Kd [9] was 45 µM. The Kd [10] was 107 µM.

Binder B21 has a Kd [13] of 4 µM and a Kd [12] of 24 µM.

With B22 the Kd [17] was 453 µM.

In the case of B23, the Kd [4] is reported as 123 µM, the Kd [5] is reported as 3 µM and the Kd [3] is reported as 73 µM.

B24 was tested, and the Kd [13] was 5 µM and the Kd [12] was 12 µM.

In the case of B25, the Kd [17] is reported as 144 µM.

B26 was tested, and the Kd [16] was 12 µM and the Kd [11] was 96 µM.

B27 showed a Kd [7] of 26 µM, a Kd [8] of 10 µM and a Kd [9] of 91 µM. It also gave a Kd [10] of 229 µM.

With B28 the Kd [5] was 15 µM, the Kd [6] was 4 µM and the Kd [3] was 34 µM.

Work on B29 yielded a Kd [14] of 146 µM.

B30 was tested, and the Kd [7] was 37 µM, the Kd [8] was 63 µM and the Kd [9] was 3 µM. For the same binder, the Kd [10] was 217 µM.

For B31, the Kd [15] was 116 µM, the Kd [13] was 15 µM and the Kd [12] was 213 µM.

For B32, the Kd [17] was 14 µM, the Kd [1] was 9 µM and the Kd [2] was 498 µM.

B33 was tested, and the Kd [11] was 50 µM.

B34 gave a Kd [7] of 238 µM and a Kd [10] of 172 µM.

In the case of B35, the Kd [16] is reported as 1 µM and the Kd [11] is reported as 1 µM.
